Laboratory results: the supplement of paper PMC7125110
± gives the standard error. This sample holds only a part of the variants without activity.

B1: glmS ribozyme (parent)
chain: AUAAAAGCGCCAGAACUACAGAAAUGUAGUUGACGAGGAGGAGGUUUAUCGAAUUUUCGGCGGAUGCCUCCAAA

Legend:
Conditions in all cases: with glucosamine-6-phosphate
glucosamine-6-phosphate [1] = variants of: B1; assay: self-cleavage kobs at 40 uM GlcN6P; higher = faster cleavage; RNA array
Summary of the method: (§1)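 Barcoded ribozyme variants on sequenced MiSeq chips were transcribed in situ by E. coli RNA polymerase and followed at 37 °C through a hybridised Cy3 probe. Glucosamine-6-phosphate at 40 μM to 10 mM in HEPES/KCl/Mg(OAc)2 buffer was flowed in, and tiles were imaged over ~14 h. Signals were normalised to baseline and to non-cleaving reference variants, and per-tile medians were fit to one- or two-exponential decays to give kobs. Weighted Michaelis–Menten fits across concentrations gave kcat and KM.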

glucosamine-6-phosphate [2] = variants of: B1; assay: self-cleavage kobs at 640 uM GlcN6P; higher = faster cleavage; RNA array
Summary of the method: as §1

glucosamine-6-phosphate [3] = variants of: B1; assay: self-cleavage kobs at 2500 uM GlcN6P; higher = faster cleavage; RNA array
Summary of the method: as §1

glucosamine-6-phosphate [4] = variants of: B1; assay: self-cleavage kobs at 160 uM GlcN6P; higher = faster cleavage; RNA array
Summary of the method: as §1

glucosamine-6-phosphate [5] = variants of: B1; assay: self-cleavage kobs at 10000 uM GlcN6P; higher = faster cleavage; RNA array
Summary of the method: as §1

| Variant | self-cleavage kobs at 40 uM GlcN6P (glucosamine-6-phosphate [1]) [s⁻¹] | self-cleavage kobs at 640 uM GlcN6P (glucosamine-6-phosphate [2]) [s⁻¹] | self-cleavage kobs at 2500 uM GlcN6P (glucosamine-6-phosphate [3]) [s⁻¹] | self-cleavage kobs at 160 uM GlcN6P (glucosamine-6-phosphate [4]) [s⁻¹] | self-cleavage kobs at 10000 uM GlcN6P (glucosamine-6-phosphate [5]) [s⁻¹] |
| --- | --- | --- | --- | --- | --- |
| G32C C70G C71G | 7.5e-05 ± 3.3e-05 | 0.000291 ± 9.2e-05 | 7.37e-05 ± 3.4e-05 |  |  |
| G29U C34U A42C | < 1e-05 | < 1e-05 | < 1e-05 | < 1e-05 | < 1e-05 |
| U30A G35A | < 1e-05 | < 1e-05 | < 1e-05 | < 1e-05 | < 1e-05 |
| G29C U30C G38C G44A A48C U55G | < 1e-05 |  | < 1e-05 |  | < 1e-05 |
| G32A G37A C50G C67U | 6.41e-05 ± 2.1e-05 |  |  |  |  |
| U30C A39C G41U | < 1e-05 |  |  |  | < 1e-05 |
| G29C A42U U65C | < 1e-05 |  | < 1e-05 |  | < 1e-05 |
| C16U U31C A36G G41C | < 1e-05 |  | < 1e-05 |  | < 1e-05 |
| U31A G44C | < 1e-05 |  |  |  | 6.05e-05 ± 1.8e-05 |
| U31A U55C G63C C67G | < 1e-05 |  | < 1e-05 |  | < 1e-05 |
| U30G A36G | < 1e-05 | < 1e-05 | < 1e-05 | < 1e-05 | < 1e-05 |
| G29A C50G A53U G66U | 5.27e-05 ± 2.6e-05 |  |  |  |  |
| U30A C68A | < 1e-05 |  |  |  |  |
| U31A G37C U69G | < 1e-05 |  |  |  |  |
| U30A A39U G51A A64G | < 1e-05 |  |  |  | < 1e-05 |
| G29U C50G A53G U55G C67G | 0.000349 ± 0.00015 |  |  |  |  |
| U31A G43C U54G | < 1e-05 |  |  |  | < 1e-05 |
| U30G A33U G60A | < 1e-05 | < 1e-05 | < 1e-05 |  |  |
| G29C G51U U55G | < 1e-05 |  |  |  | < 1e-05 |
| U31C A36G A39G U47C | < 1e-05 |  |  |  | < 1e-05 |
| G29U A39G A64U | < 1e-05 |  |  |  |  |
| U30C A48C | < 1e-05 | < 1e-05 | < 1e-05 | < 1e-05 | < 1e-05 |
| G29U U31C A48C | < 1e-05 |  |  |  | < 1e-05 |
| U30C G32C G44U C50U | < 1e-05 |  |  |  | < 1e-05 |

| Variant | self-cleavage kobs at 40 uM GlcN6P (glucosamine-6-phosphate [1]) [s⁻¹] | self-cleavage kobs at 640 uM GlcN6P (glucosamine-6-phosphate [2]) [s⁻¹] | self-cleavage kobs at 2500 uM GlcN6P (glucosamine-6-phosphate [3]) [s⁻¹] | self-cleavage kobs at 160 uM GlcN6P (glucosamine-6-phosphate [4]) [s⁻¹] | self-cleavage kobs at 10000 uM GlcN6P (glucosamine-6-phosphate [5]) [s⁻¹] |
| --- | --- | --- | --- | --- | --- |
| G32A A48U C70U | < 1e-05 |  |  |  |  |
| G29C G35U C58U | < 1e-05 |  |  |  |  |
| U31G A39C G44C | < 1e-05 |  |  |  |  |
| C16G C70U | 0.000111 ± 1.4e-05 | 0.000455 ± 8e-05 | 0.000561 ± 9e-05 | 0.000359 ± 6.2e-05 | 0.00521 ± 0.001 |
| G29C U31A U46A A53C C71U | < 1e-05 |  |  |  |  |
| G32A A33U C68G C71G | 0.000162 ± 3.9e-05 | 0.000432 ± 0.0001 | 9.26e-05 ± 3.4e-05 |  | 0.000152 ± 3.2e-05 |
| C16G U30G C61G | < 1e-05 |  |  |  | < 1e-05 |
| C16U U69C | 0.000407 ± 8.8e-05 | 0.000778 ± 0.00013 | 0.000683 ± 0.00014 | 0.000359 ± 9e-05 | 0.0036 ± 0.00088 |
| C16U U30G G32A U57A C61U | < 1e-05 |  | < 1e-05 |  |  |
| C16U U31C G35A G41A G62U | < 1e-05 | < 1e-05 |  |  |  |
| G29C C58G | < 1e-05 |  | 6.23e-05 ± 2.1e-05 |  | 4.93e-05 ± 1.5e-05 |
| G29C A48U | < 1e-05 |  |  | < 1e-05 |  |
| U31G U54G | 0.000298 ± 5.4e-05 | 0.00263 ± 0.00063 | 0.00445 ± 0.00094 | 0.000493 ± 8.5e-05 | 0.0119 ± 0.0031 |
| U31G U54A | 0.000582 ± 0.00015 |  | 0.00634 ± 0.0018 |  | 0.00833 ± 0.002 |
| U31G G60C C68A | < 1e-05 |  |  |  |  |
| U31A A36U | < 1e-05 | < 1e-05 | < 1e-05 | < 1e-05 | < 1e-05 |
| U31C G63C | < 1e-05 | < 1e-05 |  | < 1e-05 | < 1e-05 |
| U31C U57G | < 1e-05 |  |  |  |  |
| U31C A39G C50U U54G C58A G60C G62U | < 1e-05 |  |  |  | < 1e-05 |
| U30A G66C C70G | < 1e-05 |  |  |  |  |
| U30G A52C G62U | < 1e-05 |  |  |  | < 1e-05 |
| G21A | 0.00134 ± 0.00021 | 0.00836 ± 0.0012 | 0.00839 ± 0.0024 | 0.00268 ± 0.00063 | 0.0758 ± 0.037 |
| U31C G35A | < 1e-05 | < 1e-05 | < 1e-05 | < 1e-05 | < 1e-05 |
| C16G G35A | < 1e-05 | < 1e-05 |  | < 1e-05 | < 1e-05 |
